T1: CD40L over-expressed on Expi293 cells (UniProt P29965 1-261, limits assumed)
T1 construct: whole, on cells; also called cytokine over-expressing Expi293 cells
T1 sequence (looked up): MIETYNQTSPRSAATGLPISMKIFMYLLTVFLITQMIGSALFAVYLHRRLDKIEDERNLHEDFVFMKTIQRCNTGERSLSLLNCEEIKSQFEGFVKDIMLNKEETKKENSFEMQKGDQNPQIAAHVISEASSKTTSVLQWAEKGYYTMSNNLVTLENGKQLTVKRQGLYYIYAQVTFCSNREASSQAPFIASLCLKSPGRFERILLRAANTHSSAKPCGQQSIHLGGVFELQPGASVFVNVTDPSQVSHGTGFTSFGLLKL


Molecular target: T1, CD40L over-expressed on Expi293 cells
Assay: flow cytometry, 100 nM antibody, CD40L-Expi293 vs parent Expi293 cells;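 note: ratio is the mean fluorescence intensity on CD40L-overexpressing Expi293 cells divided by the mean fluorescence intensity on parental Expi293 cells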
Description: All incubations and washes were in buffer containing PBS+1% BSA. MFI Ratio is defined by the mean fluorescence intensity (MFI) of the cytokine over-expressing Expi293 cell over the Expi293 parent cell. […] EC50 was calculated in GraphPad Prism.

| 100 nM FACS (MFI Ratio) | Binder |
| --- | --- |
| 2.7 ratio | CD40L-106 (VHH) VHH: EVQLVESGGGLVQPGGSLRLSCAASGLTFNDYAMGWFRQAPGKEREFVAGITNGGGRTSYADSVKGRFTISADNSKNTAYLQMNSLKPEDTAVYYCAADVGPTVKWGQGTLVTVSS |
| 4.6 ratio | CD40L-80 (VHH) VHH: EVQLVESGGGLVQPGGSLRLSCAASGFTFDDYDMGWFRQAPGKERELVASITSGGSTNYADSVKGRFTISADNSKNTAYLQMNSLKPEDTAVYYCAIPHGIDLYTFDWGQGTLVTVSS |
| 9.6 ratio | CD40L-76 (VHH) VHH: EVQLVESGGGLVQPGGSLRLSCAASGRTFSTSAMGWFRQAPGKEREWVATIYSRSGGGTAYADSVKGRFTISADNSKNTAYLQMNSLKPEDTAVYYCAKEGYDWGDYVMDYWGQGTLVTVSS |
| 3.6 ratio | CD40L-183 (antibody, V domains shown, IgG2) VH: EVQLLESGGGLVQPGGSLRLSCAASGGYNFRDYMHWVRQAPGKGLEWVSSIVSSGGLTLYADSVKGRFTISRDNSKNTLYLQMNSLRAEDTAVYYCAKDLGQGFDYWGQGTLVTVSS VL: DIQMTQSPSSLSASVGDRVTITCTGDKLAEKYVSWYQQKPGKAPKLLIYQNDKRPSGVPSRFSGSGSGTDFTLTISSLQPEDFATYYCQQSYSRPYTFGQGTKVEIK |
| 6.4 ratio | CD40L-98 (VHH) VHH: EVQLVESGGGLVQPGGSLRLSCAASGITFKRYDMGWFRQAPGKEREVVAVIYTSDGSTYYADSVKGRFTISADNSKNTAYLQMNSLKPEDTAVYYCAADRDRYRDGMGPMTTTDFRWGQGTLVTVSS |
| 6.7 ratio | CD40L-203 (antibody, V domains shown, IgG2) VH: EVQLLESGGGLVQPGGSLRLSCAASGGYNFRDYMHWVRQAPGKGLEWVAEIRNKANNHATKYADSVKGRFTISRDNSKNTLYLQMNSLRAEDTAVYYCAKNLGQGFDYWGQGTLVTVSS VL: DIQMTQSPSSLSASVGDRVTITCRASQSISSYVNWYQQKPGKAPKLLIYANTNGPSGVPSRFSGSGSGTDFTLTISSLQPEDFATYYCQSYDNSVRGSRVFGQGTKVEIK |
| 3.6 ratio | CD40L-103 (VHH) VHH: EVQLVESGGGLVQPGGSLRLSCAASGRSFSSVYAMGWFRQAPGKEREFIAVIYWRDGSSLYADSVKGRFTISADNSKNTAYLQMNSLKPEDTAVYYCAAEPYGSGSSLISEYDWGQGTLVTVSS |
| 4.3 ratio | CD40L-91 (VHH) VHH: EVQLVESGGGLVQPGGSLRLSCAASGGTFSSFPMGWFRQAPGKEREFVAAISWSEDNTYYADSVKGRFTISADNSKNTAYLQMNSLKPEDTAVYYCASRLAFCGRDCYLPTDWGQGTLVTVSS |
| 3.7 ratio | CD40L-96 (VHH) VHH: EVQLVESGGGLVQPGGSLRLSCAASGGTFSAFPMGWFRQAPGKEREWVAAITSSGDSIYYADSVKGRFTISADNSKNTAYLQMNSLKPEDTAVYYCTSRLAFCGRDCYLPTTWGQGTLVTVSS |
| 3.1 ratio | CD40L-99 (VHH) VHH: EVQLVESGGGLVQPGGSLRLSCAASGFTPDDYAMGWFRQAPGKEREFVADIMPYGSTEYADSVKGRFTISADNSKNTAYLQMNSLKPEDTAVYYCARRDAGIDFYYMDVWGQGTLVTVSS |
| 12.7 ratio | CD40L-84 (VHH) VHH: EVQLVESGGGLVQPGGSLRLSCAASGRISNINIMGWFRQAPGKEREFVAGISQSGGSTAYADSVKGRFTISADNSKNTAYLQMNSLKPEDTAVYYCSRDEKLGPYYFDYWGQGTLVTVSS |
| 6.4 ratio | CD40L-178 (antibody, V domains shown, IgG2) VH: EVQLLESGGGLVQPGGSLRLSCAASGFTFEDYQMGWVRQAPGKGLEWVSSITSEGGSTYYADSVKGRFTISRDNSKNTLYLQMNSLRAEDTAVYYCAKPGRDFDYWGQGTLVTVSS VL: DIQMTQSPSSLSASVGDRVTITCRASQPIVRNLRWYQQKPGKAPKLLIYGASSLESGVPSRFSGSGSGTDFTLTISSLQPEDFATYYCLQNVANPATFGQGTKVEIK |
| 16.8 ratio | CD40L-195 (antibody, V domains shown, IgG2) VH: EVQLLESGGGLVQPGGSLRLSCAASGFDFSDYEMSWVRQAPGKGLEWVSSITSEGGSTYYADSVKGRFTISRDNSKNTLYLQMNSLRAEDTAVYYCAKPGRLFDYWGQGTLVTVSS VL: DIQMTQSPSSLSASVGDRVTITCSGDNIGSIYASWYQQKPGKAPKLLIYQNDKRPSGVPSRFSGSGSGTDFTLTISSLQPEDFATYYCQQGYNSNDVDNVFGQGTKVEIK |
| 6.9 ratio | CD40L-201 (antibody, V domains shown, IgG2) VH: EVQLLESGGGLVQPGGSLRLSCAASGFTFASYEMTWVRQAPGKGLEWVSSITSEGGSTYYADSVKGRFTISRDNSKNTLYLQMNSLRAEDTAVYYCAKPDVLFDYWGQGTLVTVSS VL: DIQMTQSPSSLSASVGDRVTITCSGDNLRGYYASWYQQKPGKAPKLLIYGTSDLQSGVPSRFSGSGSGTDFTLTISSLQPEDFATYYCQAWDTNTVIFGQGTKVEIK |
| 2.3 ratio | CD40L-187 (antibody, V domains shown, IgG2) VH: EVQLLESGGGLVQPGGSLRLSCAASGFDFSDYEMSWVRQAPGKGLEWVSSITSEGGSTYYADSVKGRFTISRDNSKNTLYLQMNSLRAEDTAVYYCAKPGKNFDYWGQGTLVTVSS VL: DIQMTQSPSSLSASVGDRVTITCRASSSVSYMHWYQQKPGKAPKLLIYHTSRLQSGVPSRFSGSGSGTDFTLTISSLQPEDFATYYCSAFTHNSDVFGQGTKVEIK |
| 7.3 ratio | CD40L-194 (antibody, V domains shown, IgG2) VH: EVQLLESGGGLVQPGGSLRLSCAASGFTFEDTEMDWVRQAPGKGLEWVSSITSEGGSTYYADSVKGRFTISRDNSKNTLYLQMNSLRAEDTAVYYCAKPDVLFDYWGQGTLVTVSS VL: DIQMTQSPSSLSASVGDRVTITCRASQNINYYLNWYQQKPGKAPKLLIYQNDKRPSGVPSRFSGSGSGTDFTLTISSLQPEDFATYYCQQSYENPLTFGQGTKVEIK |
| 14.2 ratio | CD40L-202 (antibody, V domains shown, IgG2) VH: EVQLLESGGGLVQPGGSLRLSCAASGFTFASYEMTWVRQAPGKGLEWVSSITSEGGSTYYADSVKGRFTISRDNSKNTLYLQMNSLRAEDTAVYYCAKPDVLFDYWGQGTLVTVSS VL: DIQMTQSPSSLSASVGDRVTITCRASQDIYQNLDWYQQKPGKAPKLLIYQDFKRPSGVPSRFSGSGSGTDFTLTISSLQPEDFATYYCQAWDNGAAVFGQGTKVEIK |
| 4.5 ratio | CD40L-185 (antibody, V domains shown, IgG2) VH: EVQLLESGGGLVQPGGSLRLSCAASGFDFSDYEMSWVRQAPGKGLEWVSSITSEGGSTYYADSVKGRFTISRDNSKNTLYLQMNSLRAEDTAVYYCAKPDQFLDYWGQGTLVTVSS VL: DIQMTQSPSSLSASVGDRVTITCRASQTIERRLNWYQQKPGKAPKLLIYGTTSLESGVPSRFSGSGSGTDFTLTISSLQPEDFATYYCHHWHHNPTHHETNVFGQGTKVEIK |
| 3.6 ratio | CD40L-197 (antibody, V domains shown, IgG2) VH: EVQLLESGGGLVQPGGSLRLSCAASGFDFSDYEMSWVRQAPGKGLEWVSSITSEGGSTYYADSVKGRFTISRDNSKNTLYLQMNSLRAEDTAVYYCAKPGRDFDYWGQGTLVTVSS VL: DIQMTQSPSSLSASVGDRVTITCRTSQDIGNYLNWYQQKPGKAPKLLIYYDVNRPSGVPSRFSGSGSGTDFTLTISSLQPEDFATYYCQPSFYFPYTFGQGTKVEIK |
| 3.1 ratio | CD40L-179 (antibody, V domains shown, IgG2) VH: EVQLLESGGGLVQPGGSLRLSCAASGFDFSDYEMSWVRQAPGKGLEWVSSITSEGGSTYYADSVKGRFTISRDNSKNTLYLQMNSLRAEDTAVYYCAKPDVLFDYWGQGTLVTVSS VL: DIQMTQSPSSLSASVGDRVTITCRASQSILSYLNWYQQKPGKAPKLLIYGTSKLASGVPSRFSGSGSGTDFTLTISSLQPEDFATYYCQSYDNDFYGTVFGQGTKVEIK |
| 4.7 ratio | CD40L-189 (antibody, V domains shown, IgG2) VH: EVQLLESGGGLVQPGGSLRLSCAASGFDFSDYEMSWVRQAPGKGLEWVSSITSEGGSTYYADSVKGRFTISRDNSKNTLYLQMNSLRAEDTAVYYCAKPDKTFDYWGQGTLVTVSS VL: DIQMTQSPSSLSASVGDRVTITCSGDTLGGKYAWWYQQKPGKAPKLLIYDNTNRPSGVPSRFSGSGSGTDFTLTISSLQPEDFATYYCQAWDNSAVIFGQGTKVEIK |
| 2.7 ratio | CD40L-186 (antibody, V domains shown, IgG2) VH: EVQLLESGGGLVQPGGSLRLSCAASGFDFSDYEMSWVRQAPGKGLEWVSSITSEGGSTYYADSVKGRFTISRDNSKNTLYLQMNSLRAEDTAVYYCAKPDVLFDYWGQGTLVTVSS VL: DIQMTQSPSSLSASVGDRVTITCRASQGVRTSLAWYQQKPGKAPKLLIYENNNRPSGVPSRFSGSGSGTDFTLTISSLQPEDFATYYCSQSTHVPPTFGQGTKVEIK |
| 8.7 ratio | CD40L-74 (VHH) VHH: EVQLVESGGGLVQPGGSLRLSCAASGRTFSSYYMGWFRQAPGKERELVAVIYTSDGSTYYADSVKGRFTISADNSKNTAYLQMNSLKPEDTAVYYCAAWLNGGNRWGQGTLVTVSS |
| 18.6 ratio | CD40L-82 (VHH) VHH: EVQLVESGGGLVQPGGSLRLSCAASGRIFSTYFMGWFRQAPGKEREGVATIYTGNGYTLYADSVKGRFTISADNSKNTAYLQMNSLKPEDTAVYYCAAWLNGGNRWGQGTLVTVSS |
| 10.9 ratio | CD40L-73 (VHH) VHH: EVQLVESGGGLVQPGGSLRLSCAASGFTLGNYAMGWFRQAPGKEREFVASITSYGDTYYADSVKGRFTISADNSKNTAYLQMNSLKPEDTAVYYCARDGYTYGVDYWGQGTLVTVSS |

From patent US20230265179A1 (TWIST BIOSCIENCE, published 2023)
